# In PMC10204944, “Development and characterization of nanobodies that specifically target the oncogenic Phosphatase of Regenerating Liver-3 (PRL-3) and impact its interaction with a known binding partner, CNNM3” (PLOS ONE, 2023):
# Positions count from the first letter of the chain named.
# B1: anti-PRL-3 nanobody 4 (VHH)
# VHH: QVQLQESGGGLVQTGGSLRLSCAASQSTYNFDVMGWYRLAPGKQREFLTSITNGGNIYYADSVKGRFTIARDDSKTTMYLEMNSLKPEDTAVYTCYGQTHKPRVTTSWGQGTQVTVSS
# notes: also called NB 4; source: E. coli One-Shot BL21 Star DE3 (pMES4), purified (Ni-NTA, Superdex 200); not shown: 6XHis, C-terminal, kept
# B2: anti-PRL-3 nanobody 16 (VHH)
# VHH: B1 VHH with Y29F, I69T
# notes: also called NB 16; source: E. coli One-Shot BL21 Star DE3 (pMES4), purified (Ni-NTA, Superdex 200); not shown: 6XHis, C-terminal, kept
# B3: anti-PRL-3 nanobody 19 (VHH)
# VHH: QVQLQESGGGLVQAGGSLGLSCAASRSIFNFKVMGWYRQAPGKQRELVASITNSDNTYYADSVKGRFTISREDAKTTMYLEMNSLKPEDTAVYRCYGQNWGLRATTYWGQGTQVTVSS
# notes: also called NB 19; source: E. coli One-Shot BL21 Star DE3 (pMES4), purified (Ni-NTA, Superdex 200); not shown: 6XHis, C-terminal, kept
# B4: anti-PRL-3 nanobody 26 (VHH)
# VHH: QVQLQESGGGLVQPGGSLKLSCVVTGLHYYTEGWFRQAPGKEREGVSCISSSDGRTDYIDSVKGRFTISEDNDNKTVYLQMNTLKPDDTGVYYCVAERGPRGSTWWETYDYWGQGTHVTVSS
# notes: also called NB 26; nanobody 26-His; source: E. coli One-Shot BL21 Star DE3 (pMES4), purified (Ni-NTA, Superdex 200); not shown: 6XHis, C-terminal, kept
# B5: anti-PRL-3 nanobody 84 (VHH)
# VHH: B3 VHH with A91T
# notes: also called NB 84; source: E. coli One-Shot BL21 Star DE3 (pMES4), purified (Ni-NTA, Superdex 200); not shown: 6XHis, C-terminal, kept
# B6: anti-PRL-3 nanobody 91 (VHH)
# VHH: B1 VHH with Y29F
# notes: 91 is its standard; also called NB 91; nanobody 91-His; source: E. coli One-Shot BL21 Star DE3 (pMES4), purified (Ni-NTA, Superdex 200); not shown: 6XHis, C-terminal, kept
# Target: T1, recombinant PRL-3 (Phosphatase of Regenerating Liver-3) (Homo sapiens, UniProt O75365)
# T1 construct: Phosphatase of Regenerating Liver-3 (PRL-3), human cDNA amplified with gene-specific primers and cloned into pSKB3 (NheI/XhoI); also called apo PRL-3; PTP4A family member; source: E. coli One-Shot BL21 Star DE3, purified (Ni-NTA, TEV cleavage, Superdex 200); not shown: 6XHis, N-terminal, cleaved
# T1 sequence (O75365 1-169): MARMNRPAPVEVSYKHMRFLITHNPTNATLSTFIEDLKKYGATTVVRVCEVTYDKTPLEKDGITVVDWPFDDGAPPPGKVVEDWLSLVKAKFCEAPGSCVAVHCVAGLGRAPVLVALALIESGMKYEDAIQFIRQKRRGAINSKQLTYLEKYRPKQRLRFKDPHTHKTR
# Assay: BLI; BLItz; nanobody (626.57 nM) loaded on Anti-Penta-HIS (HIS1K) biosensors; PRL-3 as analyte at six concentrations; association 5 min, dissociation 2 min; 1X kinetics buffer; global fit
# Conditions: both partners purified
Binder,Kd,koff,kon
B1,202 nM,0.000565 s⁻¹,2750 M⁻¹ s⁻¹
B2,299 nM,0.000624 s⁻¹,2090 M⁻¹ s⁻¹
B3,98.4 nM,0.000386 s⁻¹,3920 M⁻¹ s⁻¹
B4,28.9 nM,0.000127 s⁻¹,4380 M⁻¹ s⁻¹
B5,101 nM,0.000332 s⁻¹,3280 M⁻¹ s⁻¹
B6,203 nM,0.00139 s⁻¹,6880 M⁻¹ s⁻¹
